Laboratory results reported in patent publication US20170275666A1, “Methods for Preparing Rebaudioside I and Uses” (The Coca-Cola Company, priority 2014, published 2017).

Assay: Directed evolution of UGT76G1, conversion of Rebaudioside D to Rebaudioside M (round 1)
Type: biochemical
Conditions: 0.5 mM Rebaudioside D, 2.5 mM UDP-Glucose, 100 μL fresh lysate, 30° C., pH 7.2
Method in brief: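 UGT76G1 variants carrying 3-5 designed mutations were expressed in E. coli BL21(DE3) (pET30a+, 44 h at 20° C) and lysed. Lysate was reacted with 0.5 mM Reb D, 2.5 mM UDP-glucose, 3 mM MgCl2 in 50 mM phosphate pH 7.2 at 30° C; HPLC-CAD sampling at 2, 4, 7, 24 h gave conversion and initial rate.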

Row | Molecule | Conversion Reb D to Reb M after 24 h (%) | initial rate (Reb M area/min)
1 | UGT76G1var31: UGT76G1 variant, mutations E224D_L243P_V300A (protein, UniProt Q6VAB4 1-458, looked up, variant E224D L243P V300A) UDP-glycosyltransferase 76G1: MENKTETTVRRRRRIILFPVPFQGHINPILQLANVLYSKGFSITIFHTNFNKPKTSNYPHFTFRFILDNDPQDERISNLPTHGPLAGMRIPIINEHGADELRRELELLMLASEEDEEVSCLITDALWYFAQSVADSLNLRRLVLMTSSLFNFHAHVSLPQFDELGYLDPDDKTRLEEQASGFPMLKVKDIKSAYSNWQILKEILGKMIKQTKASSGVIWNSFKDLEESELETVIREIPAPSFPIPLPKHLTASSSSLLDHDRTVFQWLDQQPPSSVLYVSFGSTSEVDEKDFLEIARGLADSKQSFLWVVRPGFVKGSTWVEPLPDGFLGERGRIVKWVPQQEVLAHGAIGAFWTHSGWNSTLESVCEGVPMIFSDFGLDQPLNARYMSDVLKVGVYLENGWERGEIANAIRRVMVDEEGEYIRQNARVLKQKADVSLMKGGSSYESLESLVSYISSL | 0.4 | 2.4E+05
2 | UGT76G1var32: UGT76G1 variant, mutations A239V_L243A_S375M (protein, UniProt Q6VAB4 1-458, looked up, variant A239V L243A S375M) UDP-glycosyltransferase 76G1: MENKTETTVRRRRRIILFPVPFQGHINPILQLANVLYSKGFSITIFHTNFNKPKTSNYPHFTFRFILDNDPQDERISNLPTHGPLAGMRIPIINEHGADELRRELELLMLASEEDEEVSCLITDALWYFAQSVADSLNLRRLVLMTSSLFNFHAHVSLPQFDELGYLDPDDKTRLEEQASGFPMLKVKDIKSAYSNWQILKEILGKMIKQTKASSGVIWNSFKELEESELETVIREIPVPSFAIPLPKHLTASSSSLLDHDRTVFQWLDQQPPSSVLYVSFGSTSEVDEKDFLEIARGLVDSKQSFLWVVRPGFVKGSTWVEPLPDGFLGERGRIVKWVPQQEVLAHGAIGAFWTHSGWNSTLESVCEGVPMIFMDFGLDQPLNARYMSDVLKVGVYLENGWERGEIANAIRRVMVDEEGEYIRQNARVLKQKADVSLMKGGSSYESLESLVSYISSL | 0.0 | −4.4E+04
3 | UGT76G1var36: UGT76G1 variant, mutations F265L_L379A_V396F (protein, UniProt Q6VAB4 1-458, looked up, variant F265L L379A V396F) UDP-glycosyltransferase 76G1: MENKTETTVRRRRRIILFPVPFQGHINPILQLANVLYSKGFSITIFHTNFNKPKTSNYPHFTFRFILDNDPQDERISNLPTHGPLAGMRIPIINEHGADELRRELELLMLASEEDEEVSCLITDALWYFAQSVADSLNLRRLVLMTSSLFNFHAHVSLPQFDELGYLDPDDKTRLEEQASGFPMLKVKDIKSAYSNWQILKEILGKMIKQTKASSGVIWNSFKELEESELETVIREIPAPSFLIPLPKHLTASSSSLLDHDRTVLQWLDQQPPSSVLYVSFGSTSEVDEKDFLEIARGLVDSKQSFLWVVRPGFVKGSTWVEPLPDGFLGERGRIVKWVPQQEVLAHGAIGAFWTHSGWNSTLESVCEGVPMIFSDFGADQPLNARYMSDVLKVGFYLENGWERGEIANAIRRVMVDEEGEYIRQNARVLKQKADVSLMKGGSSYESLESLVSYISSL | 20.0 | 8.8E+06
4 | UGT76G1var33: UGT76G1 variant, mutations A33G_R334H_Y397Q (protein, UniProt Q6VAB4 1-458, looked up, variant A33G R334H Y397Q) UDP-glycosyltransferase 76G1: MENKTETTVRRRRRIILFPVPFQGHINPILQLGNVLYSKGFSITIFHTNFNKPKTSNYPHFTFRFILDNDPQDERISNLPTHGPLAGMRIPIINEHGADELRRELELLMLASEEDEEVSCLITDALWYFAQSVADSLNLRRLVLMTSSLFNFHAHVSLPQFDELGYLDPDDKTRLEEQASGFPMLKVKDIKSAYSNWQILKEILGKMIKQTKASSGVIWNSFKELEESELETVIREIPAPSFLIPLPKHLTASSSSLLDHDRTVFQWLDQQPPSSVLYVSFGSTSEVDEKDFLEIARGLVDSKQSFLWVVRPGFVKGSTWVEPLPDGFLGERGHIVKWVPQQEVLAHGAIGAFWTHSGWNSTLESVCEGVPMIFSDFGLDQPLNARYMSDVLKVGVQLENGWERGEIANAIRRVMVDEEGEYIRQNARVLKQKADVSLMKGGSSYESLESLVSYISSL | 1.0 | 7.5E+06
5 | UGT76G1var35: UGT76G1 variant, mutations T284L_F314S_S357N (protein, UniProt Q6VAB4 1-458, looked up, variant T284L F314S S357N) UDP-glycosyltransferase 76G1: MENKTETTVRRRRRIILFPVPFQGHINPILQLANVLYSKGFSITIFHTNFNKPKTSNYPHFTFRFILDNDPQDERISNLPTHGPLAGMRIPIINEHGADELRRELELLMLASEEDEEVSCLITDALWYFAQSVADSLNLRRLVLMTSSLFNFHAHVSLPQFDELGYLDPDDKTRLEEQASGFPMLKVKDIKSAYSNWQILKEILGKMIKQTKASSGVIWNSFKELEESELETVIREIPAPSFLIPLPKHLTASSSSLLDHDRTVFQWLDQQPPSSVLYVSFGSLSEVDEKDFLEIARGLVDSKQSFLWVVRPGSVKGSTWVEPLPDGFLGERGRIVKWVPQQEVLAHGAIGAFWTHNGWNSTLESVCEGVPMIFSDFGLDQPLNARYMSDVLKVGVYLENGWERGEIANAIRRVMVDEEGEYIRQNARVLKQKADVSLMKGGSSYESLESLVSYISSL | 0.5 | 1.8E+05
6 | UGT76G1var34: UGT76G1 variant, mutations I43V_T284I_I295T (protein, UniProt Q6VAB4 1-458, looked up, variant I43V T284I I295T) UDP-glycosyltransferase 76G1: MENKTETTVRRRRRIILFPVPFQGHINPILQLANVLYSKGFSVTIFHTNFNKPKTSNYPHFTFRFILDNDPQDERISNLPTHGPLAGMRIPIINEHGADELRRELELLMLASEEDEEVSCLITDALWYFAQSVADSLNLRRLVLMTSSLFNFHAHVSLPQFDELGYLDPDDKTRLEEQASGFPMLKVKDIKSAYSNWQILKEILGKMIKQTKASSGVIWNSFKELEESELETVIREIPAPSFLIPLPKHLTASSSSLLDHDRTVFQWLDQQPPSSVLYVSFGSISEVDEKDFLETARGLVDSKQSFLWVVRPGFVKGSTWVEPLPDGFLGERGRIVKWVPQQEVLAHGAIGAFWTHSGWNSTLESVCEGVPMIFSDFGLDQPLNARYMSDVLKVGVYLENGWERGEIANAIRRVMVDEEGEYIRQNARVLKQKADVSLMKGGSSYESLESLVSYISSL | 3.4 | 1.5E+06
7 | UGT76G1var37: UGT76G1 variant, mutations E229A_L379G_I407V (protein, UniProt Q6VAB4 1-458, looked up, variant E229A L379G I407V) UDP-glycosyltransferase 76G1: MENKTETTVRRRRRIILFPVPFQGHINPILQLANVLYSKGFSITIFHTNFNKPKTSNYPHFTFRFILDNDPQDERISNLPTHGPLAGMRIPIINEHGADELRRELELLMLASEEDEEVSCLITDALWYFAQSVADSLNLRRLVLMTSSLFNFHAHVSLPQFDELGYLDPDDKTRLEEQASGFPMLKVKDIKSAYSNWQILKEILGKMIKQTKASSGVIWNSFKELEESALETVIREIPAPSFLIPLPKHLTASSSSLLDHDRTVFQWLDQQPPSSVLYVSFGSTSEVDEKDFLEIARGLVDSKQSFLWVVRPGFVKGSTWVEPLPDGFLGERGRIVKWVPQQEVLAHGAIGAFWTHSGWNSTLESVCEGVPMIFSDFGGDQPLNARYMSDVLKVGVYLENGWERGEVANAIRRVMVDEEGEYIRQNARVLKQKADVSLMKGGSSYESLESLVSYISSL | 39.1 | 2.8E+07
